Paper PMC12440807

Molecular target: RNA polymerase II;RECQL5;CSB;CSA-DDB1;UVSSA;ELOF1 (Sus scrofa domesticus?;Homo …, UniProt A0A8D1DPV6;A0A0B8RVL1;P19387;O15514;I3LSI7;P61218;P62487;P52434;P36954;P52435;P6 …, |||||)
Test: cryo-EM; 1 mM ADP; phosphorylated Pol II; glutaraldehyde cross-linked; 3.5 A; EMSA: 20 mM HEPES pH 7.5, 66 mM NaCl, 5% glycerol, 1 mM DTT, 0.25 mg/ml BSA, on ice 30 min; 6% gel, 0.5x TBE, 4 C
Settings: protein: native;recombinant;recombinant;recombinant;recombinant;recombinant; copies: 1;1;1;1;1;1;1;1;1;1;1;1;1;1;1;1;1;1; 15-nt mismatch bubble; RNA 45 nt, 3' end hybridized to template

B1: EC-TCR DNA-RNA scaffold (mixed)
DNA 1: CGCTCTGCTCCTTCTCCCATCCTCTCGATGGCTATGAGATCAACTAG
DNA 2: CTAGTTGATCTCATATTTCATTCCTACTCAGGAGAAGGAGCAGAGCG
RNA: ACAUCAUAACAUUUGAACAAGAAUAUAUAUACAAAAUCGAGAGGA
B1: binds.
